Assay results as given in patent US10280218B2, “Antibodies binding to BMP4, and uses thereof” (ACADEMISCH MEDISCH CENTRUM, priority 2014, dated 2019).

T1: BMP2 (Homo sapiens, UniProt P12643)
T1 sequence (P12643 283-396): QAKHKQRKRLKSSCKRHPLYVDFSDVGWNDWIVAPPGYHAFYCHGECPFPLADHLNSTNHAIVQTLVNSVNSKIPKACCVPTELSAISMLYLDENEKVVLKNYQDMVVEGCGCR

T2: BMP6 (Homo sapiens, UniProt P22004)
T2 sequence (P22004 375-513): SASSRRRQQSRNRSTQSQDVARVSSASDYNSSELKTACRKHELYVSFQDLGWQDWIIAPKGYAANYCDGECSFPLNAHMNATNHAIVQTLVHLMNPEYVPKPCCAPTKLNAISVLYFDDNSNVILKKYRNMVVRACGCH

T3: BMP4 (Homo sapiens, UniProt P12644)
T3 sequence (P12644 293-408): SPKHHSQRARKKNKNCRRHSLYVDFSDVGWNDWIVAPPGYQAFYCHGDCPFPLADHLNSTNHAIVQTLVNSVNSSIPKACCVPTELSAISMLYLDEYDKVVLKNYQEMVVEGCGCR


What was measured:
BMP2 = target: T1, BMP2; assay: Surface plasmon resonance (SPR), BMPs injected over VHH-coated chip; parameters: ka (BMP2): unit not given here; conditions: molecule coupled to chip, —: No binding detected
Protocol: (§1) In a first set of experiments, controls and VHHs (either as monomers or dimers) were coupled to SPR chips and the measurement of BMP affinities was obtained by injecting the different BMPs to the plate.
(§2) Serial dilutions (2.0-10 μg/ml) of purified VHHs were spotted on an amine-specific SensEye gold-film gel-type SPRchip (Ssens), using a Continuous Flow Microspotter (Wasatch Microfluidics, Salt Lake City, Utah, United States) as described (Lokate et al., 2007). BMP binding was analyzed on an IBIS MX96 (IBIS Technologies, Enschede, The Netherlands) instrument by performing injections with dilution series (0.05-2.0 μg/ml) of recombinant BMPs on the VHH-coated chip. In each injection, BMPs were injected and incubated for 8 min, followed by 15 min thorough washing with binding buffer (PBS+0.05% Tween20+0.05% sodium azide) to measure dissociation. Epitope binning was done by injecting VHH dilutions (2.0 μg/ml) over the chip, immediately after the dissociation step. Injections with blank binding buffer were used as reference. After each concatenated injection, the chip was regenerated with 10 mM glycine-HCl, pH 2.0. Experimental data were processed with SPRintX software (IBIS Technologies) and kinetic parameters were determined using Scrubber2 software (BioLogic Software, Campbell, ACT, Australia). Binding constants were obtained by global fitting to a one-site binding model.

BMP6 = target: T2, BMP6; assay: as above; conditions: molecule coupled to chip; unit inferred; — not defined there (Table 1: No binding detected)
Protocol: as §1, with “To confirm their BMP specificities and to elucidate their binding affinities, our VHHs were subjected to surface plasmon resonance (SPR) analysis. In” for “In”
as §2

endogenous BMP activity = assay: BRE-luciferase activity of supernatants of mouse intestinal organoid cultures; format: cell-based; conditions: supernatants of day 3; C4C4 100 ng/ml, C8C8 500 ng/ml or 5 μg/ml
Protocol: Finally, the VHHs were tested in an intestinal organoid culture system for their ability to neutralize the function of BMP4 ex vivo. Inhibition of BMP activity is one of the requirements to maintain Intestinal Stem Cells in vitro cultured as “organoids” that mimic crypt-villus structures and is usually provided by the addition of Noggin to the media. Murine small intestine organoids were cultured in the presence or absence of the VHH biheads and compared to Noggin. To precisely determine which BMPs are present in these cultures, BMP secretion was measured in the conditioned media of intestinal organoids grown without Noggin for three days. Whereas BMP2, BMP4 and BMP6 could be detected by ELISA (FIG. 14A), BMP5 levels were negative, most likely due to the low sensitivity of the ELISA assay (>250 pg/mL), and not due to the lack of BMP5 in these cultures. Indeed, analysis of the protein lysates of these organoids, detected the presence of BMP2, BMP4, BMP5 and BMP6 (FIG. 14B). Next, freshly isolated crypts from murine small intestines were cultured with the VHHs and tested for their ability to provide endogenous BMP inhibition and to sustain organoid cultures ex vivo. […]
Organoids were cultured as previously described (Sato et al., 2009). […] Crypts were counted and resuspended in matrigel. […]

BMP4 = target: T3, BMP4; assay: BMP specificity of VHH antibodies (summary of binding and inhibition of BMP function); parameters: purchased R&D systems; key: ●▪: Binding and inhibition of BMP function.; ●□: Binding, but no inhibition.; ○: No binding; conditions: summary of SPR and functional experiments
Text: Thus, we have generated several VH Hs that can be classified into four groups (Table 3): BMP4, BMP2/4, BMP2/4/5 and BMP2/4/5/6-specific.

kd (BMP2) (BMP2)	Kd (BMP6) [nM]	ka (BMP2) (BMP2)	BMP4: binding and inhibition of BMP function (BMP4)	Molecule	inhibition of endogenous BMP activity ex vivo (BRE-luciferase activity of organoid supernatants) (endogenous BMP activity)
16.2 10^−5 sec^−1	50	–	–	hNoggin (protein) QHYLHIRPAPSDNLPLVDLIEHPDPIFDPKEKDLNETLLRSLLGGHYDPGFMATSPPEDRPGGGGGAAGGAEDLAELDQLLRQRPSGAMPSEIKGLEFSEGLAQGKKQRLSKKLRRKLQMWLWSQTFCPVLYAWNDLGSRFWPRYVKVGSCFSKRSCSVPEGMVCKPSKSVHLTVLRWRCQRRGGQRCGWIPIQYPIISECKCSC	–
10.7 10^−5 sec^−1	50	19.4	●▪	C8E7: E7 linked to C8, hetero-dimer VHH bihead (protein) EVQLVESGGGLVQAGGSLRLSCAASGRTFRINDMGWYRQAPGKSRDMVARITSGGNTNYADSVKGRFTISRDNAKNTVYLQMNSLKPEDTAVYYCNADGLRFDSTRYRPFDSWGQGTQVTVSSGGGGSGGGGSEVQLVESGGGLVQAGGSLRLSCAASGSIRGFVAMAWYRQAPGKQREWVATVTNGGTLYGDSVKGRFTGSRDNAKNTVYLQMNSLKPEDTAVYYCALRQIGASGYDYWGQGTQVTVSS	to the same level as the natural inhibitor Noggin
